The values that follow come from US20250340646A1 (ELPIS BIOPHARMACEUTICALS, published 2025).

Test [1] deals with PD-L1 on PD-L1 aAPC/CHOK1 cells (Promega J1250). Nature of the test: cell-based or functional assay.
The target in test [2] is T1, PD-L1 biotinylated (PD-1/PD-L1 TR-FRET assay kit, BPS 72038) (Homo sapiens (Human), UniProt Q9NZQ7 19-238, biotinylated; site not stated).
T1 construct: Kit reagent
Nature of the test: HTRF competition, competitor PD-1-Eu. As to the method:
Briefly, 1× Immuno buffer 1 was made. […] For each well in 384-well plate, serial diluted scFvs and regents were added according to manufacturer's recommended volume. Samples were incubated at room temperature for 1.5 hours then the fluorescent intensity was read with Biotek Neo2 plate reader using manufacture's instrument setting for the assay.
On the technique in general: In TR-FRET formats the signal depends on donor and acceptor labels being close together.

Test [3] deals with T2, full-length human PD-L1 on K562 cells (human, UniProt Q9NZQ7 19-290).
T2 construct: also called PD-L1/K562; cell surface human PD-L1
Nature of the test: FACS, PD-L1/K562 cells. On the procedure:
(§1) Cells were spun down at 1200 rpm for 5 minutes at 4° C. to remove primary antibodies. Cells were then washed once with 200 μL of full medium per well. […] Samples were spun down at 1200 rpm for 5 minutes at 4° C. and washed twice with 200 μL of 1×PBS per well. Samples were reconstituted in 200 μL of 1×PBS and were read on Attune NxT cytometer.
A general note: A flow cytometer gives signals particle by particle.

Test [4] has as its target T3, human PD-L1-HIS tagged recombinant protein (human, UniProt Q9NZQ7 19-238).
T3 construct: also called hPD-L1-HIS; PD-L1 HIS tagged protein
The experiment in a line: SPR, IgG on Protein A, PD-L1-HIS analyte. As to the method: The assay was run with Biacore T200 control software version 2.0. For each cycle, 1 μg/mL of anti-hPD-L1-IgG was captured for 60 seconds at flow rate of 10 μl/min on flow cell 2 in 1×HBSP buffer on Protein A sensor chip. […] The flow cells were then regenerated with Glycine pH 2 for 60 seconds at flow rate of 30 μl/min. […] The specific binding response unit was derived from subtraction of binding to reference flow cell 1 from antibody captured flow cell 2.
For orientation: SPR reads the build-up and loss of mass on a sensor chip optically.

Test [5] addresses T2, full-length human PD-L1 on K562 cells. Nature of the test: FACS, PD-L1/K562 cells. As to the method:
as §1
The production, the binding, and all of the characterization assays for selected affinity matured scFv clones were performed as described above.
This is another data set of the same source.

The target in test [6] is biotinylated PD-L1 (Homo sapiens (Human), UniProt Q9NZQ7 19-238, biotinylated; site not stated). The experiment in a line: ELISA, anti-human Fc capture, biotinylated PD-L1. On the procedure:
A 384 well plate was immobilized with anti-human Fc at final concentration of 2 μg/mL in 1×PBS in total volume of 25 μL per well. The plate was incubated overnight at 4C followed by blocking with 80 μL of superblock per well for 1 hour. […] In between each step, the plate was washed 3 times with 1×PBST in a plate washer. The plate was then developed with 25 μL of TMB substrate for 5 min and stopped by adding 25 μL of 2N sulfuric acid. The plate was read at OD450 nm Biotek plate reader and the binding correlation was plotted with Prism 8.1 software. The ELISA binding assays of the antibodies to IL-2Rα and IL-2Rβ receptors were performed as described in Example 6.

Test [7] deals with T4, recombinant His-tagged human IL-2Rβ (human, UniProt P14784 27-240, limits assumed).
T4 construct: also called IL-2Rβ-HIS; IL-15Rβ-HIS
T4 sequence (looked up): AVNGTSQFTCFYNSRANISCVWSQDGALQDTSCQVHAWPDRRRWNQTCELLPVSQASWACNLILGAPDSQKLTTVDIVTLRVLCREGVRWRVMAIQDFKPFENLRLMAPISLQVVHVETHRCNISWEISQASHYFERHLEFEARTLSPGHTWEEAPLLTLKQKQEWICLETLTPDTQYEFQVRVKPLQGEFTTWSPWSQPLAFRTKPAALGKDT
Nature of the test: ELISA, coated His-tagged IL-2Rβ. On the procedure: For monovalent IL-2 Fc-fusion proteins, recombinant His-tagged human IL-2Rα and IL-2Rβ were added in 25 μL of 1×PBS to wells of 384-well plate and incubated overnight at 4° C. to coat the plates. Plates were washed three times with 0.05% Tween20/1×PBS. Plates were blocked with 100 μL of SuperBlock for 1 hr at RT and then washed 3 times with 0.05% Tween20/1×PBS. IL-2 mutants were diluted in 0.05% Tween 20/1×PBS from 1000 nM to 0 nM and added to plates for 2 hrs at room temperature. Plates were then washed 6 times with 0.05% Tween20/1×PBS. Anti-HisTag-HRP was diluted 1:5000 in 0.05% Tween20/1×PBS and added to plates for 1 hr at RT. Plates were then washed 6 times with 0.05% Tween 20/1×PBS, and TMB was added to develop blue color. Reactions were stopped with 2N […] and light absorbance at 450 nm was read on a BioTek plate reader. Absorbance versus IL-2 concentration is graphed for human IL-2Rα and IL-2Rβ. […]

Test [8] has as its target T3, human PD-L1-HIS tagged recombinant …. Nature of the test: SPR, Protein A capture, PD-L1-HIS analyte. On the procedure:
(§2) The assay was run with Biacore T200 control software version 2.0. For each cycle, 1 μg/mL of anti-hPD-L1/IL-2 was captured for 60 seconds at flow rate of 10 μL/min on flow cell 2 in 1×HBSP buffer on Protein A sensor chip. […] The flow cells were then regenerated with Glycine pH2 for 60 seconds at flow rate of 30 μL/min. […] The specific binding response unit was derived from subtraction of binding to reference flow cell 1 from antibody captured flow cell 2.

Test [9] concerns the target PD-L1 on PD-L1 aAPC/CHOK1 cells (Promega J1250). Nature of the test: cell-based or functional assay. This is another data set of the same source.
The target in test [10] is T4, recombinant His-tagged human IL-2Rβ. The experiment in a line: SPR, Protein A capture, IL-2Rβ-HIS analyte. On the procedure:
as §2

The target in test [11] is T5, human PD-L1-Fc (human, UniProt Q9NZQ7 19-238).
T5 construct: also called recombinant PD-L1-Fc fusion protein
The experiment in a line: ELISA, coated PD-L1-Fc, anti-FLAG HRP. On the procedure:
The plate was incubated overnight at 4° C. followed by blocking with 80 μL of superblock per well for 1 hour. […] In between each step, the plate was washed 3 times with 1×PBST in a plate washer. The plate was then developed with 20 μL of TMB substrate for 5 min and stopped by adding 20 μL of 2N sulfuric acid. The plate was read at OD450 nm Biotek plate reader and then plotted in Prism 8.1 software.

Numbering of substitutions follows the chain as printed. Names may count otherwise. Like-named read-outs stand apart in the source and are kept apart here.

B1: 2018EP280-E04 scFv (scFv, V domains shown)
VH: QVQLQQWGAGLLKPSETLSLTCAVYGGSFSGYYWSWIRQPPGKGLEWIGEINHIGSTNYNPSLKSRVTISVDTSNNQFSLKLSSVTAADTAVYYCARGRRLRYFDWAAYNWFDPWGQGTLVTVSS
VL: QSALTQDPAVSVALGQTVRISCQGDSLRSHYASWYQQKPGQAPVVVVYDNSDRPSGIPDRFSGSNSGNTATLTISRVEVGDEADYYCQVWDSSSDHYVFGTGTKVTVL
notes: not shown: scFv linker and domain order of the library scFv
Regarding B1, the “Jurkat NFAT reporter assay EC50” value in test [1] amounted to 133 nM. In addition, the IC50 (usually the point on the concentration scale where inhibition reaches its midpoint) in [2] was determined as 38.5 nM. Moreover, the EC50 – broadly, the midpoint of the concentration-response curve – in [3] came to 5.51 nM.

B2: anti-PD-L1 IgG antibody EP480/EP481 (2018EP164-F04) (antibody, V domains shown)
VH: B1 VH with I54S, N75K
VL: QSALTQDPAVSVALGQTVRITCQGDSLRSHYASWYQQKPGQAPVVVVYDNSDRPSGIPDRFSGSNSGNTATLTISRVEVGDEADYYCQVWDSSSDHYVFGTGTKVEIRT
Take B2: the Kd (commonly a measure of binding affinity in units of concentration) in [4] was 5.73 nM.

B3: anti-PD-L1 IgG antibody 2018EP280-E04 (printed construct pair EP486/EP489) (antibody, V domains shown)
VH: B1 VH
VL: B2 VL with T21S, E106T, I107V, R108L, T109G
In the case of B3, the Kd in test [4] was determined as 2.76 nM.

B4: anti-PD-L1 IgG antibody EP488/EP489 (2018EP171-H02) (antibody, V domains shown)
VH: QVQLVQSGAEVKKPGSSVKVSCKASGGTFSSYAISWVRQAPGQGLEWMGGIIPIFGTANYAQKFQGRVTITADESTSTAYMELSSLRSEDTAVYYCARDKGYGSGWRGDYWGQGTLVTVSS
VL: QSVLTQPPSASGTPGQRVTISCSGSYSNIGSNFVNWYQQLPGTAPKLLIHFNNQRPSGVPDRFSGSRSGTSASLAISGLQSEDEADYFCSTWDDSLKGPIFGGGTKLTVLG
For B4, the Kd in [4] stood at 9.5 nM.

B5: 2018EP171-H02 scFv (scFv, V domains shown)
VH: B4 VH
VL: QSVLTQPPSASGTPGQRVTISCSGSYSNIGSNFVNWYQQLPGTAPKLLIHFNNQRPSGVPDRFSGSRSGTSASLAISGLQSEDEADYFCSTWDDSLKGPIFGGGTKLTVL
In the case of B5, the EC50 in [3] and in [5] was 0.25 nM each time.

B6: 2019EP69-H10 scFv (scFv, V domains shown)
VH: B4 VH with G101W, Y102F
VL: B5 VL
In turn, B6 had an EC50 in test [5] of 0.0799 nM.

B7: 2019EP69-F02 scFv (scFv, V domains shown)
VH: B4 VH with G101W
VL: B5 VL
With B7, the EC50 in [5] stood at 2 nM.

B8: 2019EP69-E10 scFv (scFv, V domains shown)
VH: B4 VH with Y102F
VL: B5 VL
For the molecule B8, the EC50 in test [5] is 0.207 nM.

B9: IL-2/anti-PD-L1 scFv Fc EP290/EP326 (bispecific antibody)
chain 1: not shown
chain 2: QVQLVQSGAEVKKPGSSVKVSCKASGGTFSSYAISWVRQAPGQGLEWMGGIIPIFGTANYAQKFQGRVTITADESTSTAYMELSSLRSEDTAVYYCARDKWYGSAWRGDYWGQGTLVTVSSGGGGSGGGGSGGGGSQSVLTQPPSASGTPGQRVTISCSGSYSNIGSNFVNWYQQLPGTAPKLLIHFNNQRPSGVPDRFSGSRSGTSASLAISGLQSEDEADYFCSTWDDSLKGPIFGGGTKLTVLDKTHTCPPCPAPEAAGGPSVFLFPPKPKDTLMISRTPEVTCVVVDVSHEDPEVKFNWYVDGVEVHNAKTKPREEQYNSTYRVVSVLTVLHQDWLNGKEYKCKVSNKALGAPIEKTISKAKGQPREPQVCTLPPSRDELTKNQVSLSCAVKGFYPSDIAVEWESNGQPENNYKTTPPVLDSDGSFKLVSKLTVDKSRWQQGNVFSCSVMHEALHNHYTQKSLSLSPGK
notes: IL2-Fc knob with 2019EP69-F03 scFv-Fc hole (EP326)
Consider B9, for which the figures for the EC50 in [6] and in test [7] were 0.141 nM and 4.01 nM, respectively. The same molecule showed an IC50 in [2] of 176 nM. Besides, the Kd in test [8] is 0.464 nM; in test [10] it was 57.4 nM. For the same molecule, in test [9], the “NFAT reporter EC50” value amounted to 2.3 nM.

B10: IL-2/anti-PD-L1 scFv Fc EP412/EP326 (bispecific antibody)
chain 1: not shown
chain 2: B9 chain 2
notes: IL2 with T3A/K35L/R38D/F42R
Consider B10, for which the concentration giving a half-maximal response (EC50) is 0.156 nM in [6] and 2.18 nM in test [7]. Besides, in test [2], the IC50 turned out to be 134 nM. Further, the values for the Kd in test [8] and in [10] were 0.593 nM and 12000 nM, respectively. The “NFAT reporter EC50” value in test [9] was 2.61 nM.

B11: IL-2/anti-PD-L1 scFv Fc EP415/EP326 (bispecific antibody)
chain 1: not shown
chain 2: B9 chain 2
notes: IL2 EP337
In the case of B11, the EC50 in test [6] is 0.227 nM; in [7], 1.33 nM. This molecule showed an IC50 in [2] of 2280 nM. The Kd amounted to 0.465 nM in test [8] and 6.17 nM in test [10]. In addition, the “NFAT reporter EC50” value in [9] was 3.46 nM.

B12: 2018EP170-E06 scFv (scFv, V domains shown)
VH: EVQLVQSGAEVKKPGSSVKVSCKASGGTFSSYAISWVRQAPGQGLEWMGGIIPIFGTANYAQKFQGRVTITADESTSTAYMELSSLRSEDTAVYYCARDSRWGPAPHAFDIWGQGTMVTVSS
VL: QQSVLTQPASVSGSPGQSITISCTGTSSDIGSYNLVSWYQNHPGKAPKLILYEITKRPSGVSSRFSGSKSGNAASLTISGLQAEDEAEYFCCSYAGLSVFFVFGGGTKL
For B12, the EC50 in test [3] amounted to 35.9 nM; in test [11], 158 nM.

B13: 2018EP161-G08 scFv (scFv, V domains shown)
VH: not shown
VL: VIWMTQSPSSLSASLGDRVTITCRASQSVSTYINWYQQKSGKGPKLLIFNASTLQSGVPSRFSGSGSGTDFTLTITSLQPDDSATYYCQQSYRVPLSFGGGTKVEIR
For the molecule B13, in test [11], a half-maximal response (EC50) required 1.16 nM.
